Results: US6426205 (MOUNT SINAI HOSPITAL, dated 2002)
Substitutions are numbered along the chain they refer to.

T1: Cdc53-Y48W, M49E^MYC6 (Saccharomyces cerevisiae, UniProt Q12018 1-815)
T1 construct: also called mutant Cdc53; pMT1939-1943
T1 sequence: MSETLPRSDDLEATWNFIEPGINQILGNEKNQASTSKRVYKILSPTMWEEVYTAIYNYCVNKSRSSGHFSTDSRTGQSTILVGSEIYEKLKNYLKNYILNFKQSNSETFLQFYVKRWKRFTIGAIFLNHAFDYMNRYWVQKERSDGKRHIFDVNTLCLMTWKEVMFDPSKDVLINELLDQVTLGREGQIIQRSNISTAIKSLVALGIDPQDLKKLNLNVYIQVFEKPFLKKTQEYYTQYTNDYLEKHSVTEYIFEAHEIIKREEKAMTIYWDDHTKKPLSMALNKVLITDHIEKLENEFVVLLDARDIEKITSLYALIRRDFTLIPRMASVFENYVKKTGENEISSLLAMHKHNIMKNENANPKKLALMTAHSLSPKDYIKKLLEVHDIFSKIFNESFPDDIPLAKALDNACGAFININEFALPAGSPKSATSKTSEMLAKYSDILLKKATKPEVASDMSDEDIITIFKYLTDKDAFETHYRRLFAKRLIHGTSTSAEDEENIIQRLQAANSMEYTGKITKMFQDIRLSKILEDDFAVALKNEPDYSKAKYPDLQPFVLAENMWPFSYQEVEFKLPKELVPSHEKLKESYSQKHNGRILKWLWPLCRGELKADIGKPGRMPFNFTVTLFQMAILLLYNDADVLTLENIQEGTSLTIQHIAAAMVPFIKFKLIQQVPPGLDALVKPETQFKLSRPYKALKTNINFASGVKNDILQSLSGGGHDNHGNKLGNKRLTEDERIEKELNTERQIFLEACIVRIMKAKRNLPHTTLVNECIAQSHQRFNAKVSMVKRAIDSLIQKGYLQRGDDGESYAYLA

T2: Cdc53 with deletion of residues 448-748 (MYC-tagged) (Saccharomyces cerevisiae, UniProt Q12018 1-815)
T2 construct: The limits of the text are used here; also called Cdc53 internal deletion
T2 sequence: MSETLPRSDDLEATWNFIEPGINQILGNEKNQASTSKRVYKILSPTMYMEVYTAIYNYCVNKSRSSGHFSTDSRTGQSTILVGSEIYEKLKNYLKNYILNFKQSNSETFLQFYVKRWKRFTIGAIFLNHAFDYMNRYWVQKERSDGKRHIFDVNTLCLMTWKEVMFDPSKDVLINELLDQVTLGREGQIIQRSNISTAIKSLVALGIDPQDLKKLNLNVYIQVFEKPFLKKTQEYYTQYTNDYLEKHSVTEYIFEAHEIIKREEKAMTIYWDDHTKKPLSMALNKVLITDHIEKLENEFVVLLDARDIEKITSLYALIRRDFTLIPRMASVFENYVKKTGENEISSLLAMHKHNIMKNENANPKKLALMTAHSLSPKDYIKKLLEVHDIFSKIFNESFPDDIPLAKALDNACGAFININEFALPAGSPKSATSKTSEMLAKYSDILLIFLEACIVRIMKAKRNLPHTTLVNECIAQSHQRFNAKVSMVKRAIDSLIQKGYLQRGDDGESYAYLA

T3: MYC-tagged Cdc53 (Saccharomyces cerevisiae, UniProt Q12018 1-815)
T3 construct: Expressed from the wild type promoter on a CEN plasmid in yeast and immunoprecipitated with 9E10 anti-MYC; also called Cdc53^M; Cdc53^MYC6
T3 sequence: T1 sequence with W48Y, E49M

T4: Cdc53^Δ9-280 (MYC-tagged) (Saccharomyces cerevisiae, UniProt Q12018 1-815)
T4 construct: Deletion built with natural and engineered restriction sites; also called CDC53^MΔ9-280; pMT1850
T4 sequence: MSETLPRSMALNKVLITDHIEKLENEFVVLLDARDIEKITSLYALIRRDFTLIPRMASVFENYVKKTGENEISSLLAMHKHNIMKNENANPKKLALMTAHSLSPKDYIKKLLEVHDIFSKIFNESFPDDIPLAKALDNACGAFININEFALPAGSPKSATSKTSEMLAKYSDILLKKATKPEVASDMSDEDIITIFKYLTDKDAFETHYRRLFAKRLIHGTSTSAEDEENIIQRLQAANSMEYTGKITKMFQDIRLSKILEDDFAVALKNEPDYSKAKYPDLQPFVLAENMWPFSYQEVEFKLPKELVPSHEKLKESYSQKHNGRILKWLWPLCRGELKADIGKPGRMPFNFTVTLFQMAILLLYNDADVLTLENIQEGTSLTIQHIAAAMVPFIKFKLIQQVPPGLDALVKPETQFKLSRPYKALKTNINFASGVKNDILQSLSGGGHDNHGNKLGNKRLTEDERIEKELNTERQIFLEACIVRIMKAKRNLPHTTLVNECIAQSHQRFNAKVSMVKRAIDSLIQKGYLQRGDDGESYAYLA

B1: Cdc34 (enzyme, budding yeast, UniProt P14682 1-295, looked up)
chain: MSSRKSTASSLLLRQYRELTDPKKAIPSFHIELEDDSNIFTWNIGVMVLNEDSIYHGGFFKAQMRFPEDFPFSPPQFRFTPAIYHPNVYRDGRLCISILHQSGDPMTDEPDAETWSPVQTVESVLISIVSLLEDPNINSPANVDAAVDYRKNPEQYKQRVKMEVERSKQDIPKGFIMPTSESAYISQSKLDEPESNKDMADNFWYDSDLDDDENGSVILQDDDYDDGNNHIPFEDDDVYNYNDNDDDDERIEFEDDDDDDDDSIDNDSVMDRKQPHKAEDESEDVEDVERVSKKI
notes: Endogenous protein in yeast lysates, detected with anti-Cdc34 antibodies; also called endogenous Cdc34
B2: Cdc53 with IVRIMK (residues 755-760) mutated to polyalanine (MYC-tagged) (other, not shown: small tags and cut ends)
chain: T1 sequence with W48Y, E49M, I755A, V756A, R757A, I758A, M759A, K760A
notes: also called CDC53^MIVRIMK; pMT1859

Tests used:
[1] = biological target: T1, Cdc53-Y48W, M49E^MYC6; experiment: anti-MYC immunoprecipitation from yeast lysate, western blot
Protocol: This powder was thawed, spun to remove cellular debris, and cleared by spinning in ultracentrifuge. Protein concentration in the lysate was adjusted to 24 mg/ml in a volume of 1.25 ml lysis buffer+10 mM N-ethyl maleimide, for a final mass of 30 mg protein for each strain. 25 µl of a 50% slurry in lysis buffer of protein-A beads (Pierce) cross-linked with dimethyl suberimidate to the anti-MYC monoclonal antibody 9E10 was added to each lysate, incubated with gentle rocking at 4° C. for several hours, washed several times with lysis buffer, aspirated, resuspended in protein sample buffer, and run on two 10% polyacrylamide gels. One gel was transferred to polyvinylidene fluoride membrane and western blotted with anti-MYC, anti-Cdc34, and anti-Skp1 antibodies (FIG. 12A).

[2] = biological target: T2, Cdc53 with deletion of residues 448-748 …; experiment: anti-MYC immunoprecipitation from yeast lysate, immunoblot
[3] = biological target: T3, MYC-tagged Cdc53; experiment: as above
[4] = biological target: T4, Cdc53^Δ9-280 (MYC-tagged); experiment: as above
[5] = biological target: B1; experiment: as above
[6] = biological target: T5, Skp1 (budding yeast); experiment: as above
T5 construct: Endogenous protein in yeast lysates, detected with anti-Skp1 antibodies; also called endogenous Skp1
T5 sequence (chain, as listed by the source limits assumed): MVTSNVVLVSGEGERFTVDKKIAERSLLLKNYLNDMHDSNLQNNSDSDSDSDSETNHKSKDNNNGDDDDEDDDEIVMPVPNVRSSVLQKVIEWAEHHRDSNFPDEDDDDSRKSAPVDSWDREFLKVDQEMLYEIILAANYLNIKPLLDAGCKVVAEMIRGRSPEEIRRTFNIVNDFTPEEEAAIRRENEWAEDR

Row | binding result [1] | binding result [2] | binding result [3] | binding result [4] | binding result [5] | binding result [6] | Binder
1 | binds | no binding | binds | binds |  |  | B1
2 |  |  |  |  | binds | binds | B2
